First the molecules themselves.
B1: EEHEE_rd4_0363 (parent)
chain: VTVDIKGMEYHFDNPEEAKKFAERMAKELGGELKVENGTLKVE

This is an account of results in the MegaScale stability set (Tsuboyama et al. 2023).

This data set covers variants of B1. The experiment in a line: folding stability dG (cDNA display proteolysis); higher = more stable. As to conditions: PBS, room temperature.
VTVDIKGVEYHFDNPEEAKKFAERMAKELGGELKVENGTLKVE: the “folding stability dG” value was 2.52 kcal/mol.

VTVDIKGMERHFDNPEEAKKFAERMAKELGGELKVENGTLKVE: the “folding stability dG” value was 0.383 kcal/mol. For the variant VTVDIKGMELHFDNPEEAKKFAERMAKELGGELKVENGTLKVE, the “folding stability dG” value amounted to 0.741 kcal/mol. Regarding VTVDIKGMEMHFDNPEEAKKFAERMAKELGGELKVENGTLKVE, the “folding stability dG” value came to 0.781 kcal/mol. VTVDIKGMENHFDNPEEAKKFAERMAKELGGELKVENGTLKVE: the “folding stability dG” value was -0.275 kcal/mol. VTVDIKGMEYHFDNPEEAKKFAERMAKENGGELKVENGTLKVE: the “folding stability dG” value turned out to be 1.05 kcal/mol.

Consider VTVDIKGMEYHFDNPEEAKKFAERMAKEAGGELKVENGTLKVE, for which the “folding stability dG” value turned out to be 0.915 kcal/mol. As for VTVDIKGMEYHFDNPEEAKKFAERMAKEFGGELKVENGTLKVE, the figure is 1.55 kcal/mol; as for VTVDIKGMEYHFDNPEEAKKFAERMAKELGCELKVENGTLKVE, 2.36 kcal/mol; as for VTVDIKGMEYHFDNPEEAKKFAERMAKELGTELKVENGTLKVE, 1.38 kcal/mol.

For VTVDIKGMEYHFDNPEEAKKFAERMAKELGSELKVENGTLKVE, the “folding stability dG” value is 1.39 kcal/mol. For the variant VTVDIKGMEYHFDNPMEAKKFAERMAKELGGELKVENGTLKVE, the “folding stability dG” value turned out to be 1.71 kcal/mol. As for VTVDIKFMEYHFDNPEEAKKFAERMAKELGGELKVENGTLKVE, the figure is 0.855 kcal/mol; as for VTVDIKTMEYHFDNPEEAKKFAERMAKELGGELKVENGTLKVE, 0.445 kcal/mol.

In the case of VTVDIKDMEYHFDNPEEAKKFAERMAKELGGELKVENGTLKVE, the “folding stability dG” value came out at 0.499 kcal/mol. Under VTVDIKCMEYHFDNPEEAKKFAERMAKELGGELKVENGTLKVE stands 1.72 kcal/mol. Regarding VTVDIKGMEYHFDNPEEAKKFAERMAKELGGELRVENGTLKVE, the “folding stability dG” value was found to be 2.21 kcal/mol. Consider VTVDIKGMEYHFDNPEEAKKFAERMAKELGGELHVENGTLKVE, for which the “folding stability dG” value came out at 1.82 kcal/mol. VTVDIKGMEYHFDNPEEAKKFAERMAKELGGELKVENGTGKVE: the “folding stability dG” value was 0.861 kcal/mol. Under VTVDIKGMEYHFDNPEEAKKFAERMAKELGGELKVENGTIKVE stands 2.6 kcal/mol; under VTVDIKGMEYHFDNPEEAKHFAERMAKELGGELKVENGTLKVE, 1.53 kcal/mol. As to VTVDIKGMEYHFDNPEEAKIFAERMAKELGGELKVENGTLKVE, the “folding stability dG” value came to 2.08 kcal/mol.

Consider VTVDIKGMEYHFDNPEEAKNFAERMAKELGGELKVENGTLKVE, for which the “folding stability dG” value stood at 1.77 kcal/mol. For VTVDIKGMEYHFDNPEEAKAFAERMAKELGGELKVENGTLKVE, the “folding stability dG” value stood at 2.42 kcal/mol. For the variant VTVDIKGMEYHFDNPEEAKKFAERMAKELGGELKVENGTLKVH, the “folding stability dG” value is 2.21 kcal/mol. Consider VTVDIKGMEYHFDNPEEAKKFAERMAKELGGELKVENGTLKVA, for which the “folding stability dG” value came to 1.94 kcal/mol. Under VTVDIKGMEYHFDNPEEAKKFAERMAKELGGELKVENGTLKVN stands 1.85 kcal/mol; under VTVDIKGMEYHFDNPEEAKKFAERMAKELGGELKVENGTLKVP, 1.16 kcal/mol. As for VTVDIKGMEYHFDNPEEAKKFAERMAKELGGELKVENGTLKVS, the figure is 2.11 kcal/mol; as for VTVDIKGMQYHFDNPEEAKKFAERMAKELGGELKVENGTLKVE, 2.69 kcal/mol. Under VTVDIKGMCYHFDNPEEAKKFAERMAKELGGELKVENGTLKVE stands 3.28 kcal/mol; under VTVDIKGMEYHFDNPEEAKKFAERMAKELGGEMKVENGTLKVE, 1.61 kcal/mol. As for VTVDIKGMEYHFDNPEEAKKFAERMAKELGGEIKVENGTLKVE, the “folding stability dG” value was 2.48 kcal/mol.

On to VTVDFKGMEYHFDNPEEAKKFAERMAKELGGELKVENGTLKVE, for which the “folding stability dG” value worked out at 1.44 kcal/mol. In the case of VTVDTKGMEYHFDNPEEAKKFAERMAKELGGELKVENGTLKVE, the “folding stability dG” value stood at 0.201 kcal/mol.

Regarding VTVDIKGMEYHFDNPEEAKKFAGRMAKELGGELKVENGTLKVE, the “folding stability dG” value was found to be 0.124 kcal/mol. On to VTVDIKGMEYHFDNPEEAKKFAVRMAKELGGELKVENGTLKVE, for which the “folding stability dG” value was 1.55 kcal/mol.

Take VTVDIKGMEYHFDNPEEAKKFASRMAKELGGELKVENGTLKVE: the “folding stability dG” value amounted to 1.08 kcal/mol.

With VTVDIKGMEYHFDNPEEAKKFAKRMAKELGGELKVENGTLKVE, the “folding stability dG” value stood at 1.34 kcal/mol. As to VTVDIKGMEYHFDNPEEAKKFWERMAKELGGELKVENGTLKVE, the “folding stability dG” value is 1.53 kcal/mol. As for VTVDIKGMEYHFDNPEEAKKFAERMAKELGGELKMENGTLKVE, the “folding stability dG” value was found to be 2 kcal/mol. VTVDIKGMEYHFDNPEEAKKFAERMAKELGGELKTENGTLKVE: the “folding stability dG” value turned out to be 1.72 kcal/mol.

Consider VTVDIKGMEYHFDNPEEAKKFAERMAKELGGELKQENGTLKVE, for which the “folding stability dG” value was found to be 1.62 kcal/mol.

As to VTVDIKGMEYHFDNPEEAKKFAERMAKELGGELKPENGTLKVE, the “folding stability dG” value was found to be 0.972 kcal/mol. As for VTHDIKGMEYHFDNPEEAKKFAERMAKELGGELKVENGTLKVE, the figure is -0.104 kcal/mol. As to VTLDIKGMEYHFDNPEEAKKFAERMAKELGGELKVENGTLKVE, the “folding stability dG” value stood at 1.04 kcal/mol. As for VTQDIKGMEYHFDNPEEAKKFAERMAKELGGELKVENGTLKVE, the “folding stability dG” value stood at 0.039 kcal/mol. For the variant VTNDIKGMEYHFDNPEEAKKFAERMAKELGGELKVENGTLKVE, the “folding stability dG” value was -0.005 kcal/mol. As for CTVDIKGMEYHFDNPEEAKKFAERMAKELGGELKVENGTLKVE, the figure is 2.67 kcal/mol; as for PTVDIKGMEYHFDNPEEAKKFAERMAKELGGELKVENGTLKVE, 0.612 kcal/mol; as for LTVDIKGMEYHFDNPEEAKKFAERMAKELGGELKVENGTLKVE, 2.03 kcal/mol. Under VTVDIKGMEYHFDNPEEAKKFAERMAKGLGGELKVENGTLKVE stands 0.795 kcal/mol; under VTVSIKGMEYHFDNPEEAKKFAERMAKELGGELKVENGTLKVE, 2.98 kcal/mol; under VTVMIKGMEYHFDNPEEAKKFAERMAKELGGELKVENGTLKVE, 3.14 kcal/mol.

In the case of VTVDIKGMEYHFDNPEEAKKFAERMAKELGGELKVERGTLKVE, the “folding stability dG” value came to 1.14 kcal/mol. For VTVDIKGMEYHFDNPEEAKKFAERMAKELGGELKVECGTLKVE, the “folding stability dG” value was found to be 2.07 kcal/mol. Regarding VTVDIKGMEYHFDNPEEAKKFAERMAKELGGELKVEPGTLKVE, the “folding stability dG” value amounted to 1.26 kcal/mol. As for VTVDIKGMEYHFDNPEEAKKFAERMAKELGGELKVETGTLKVE, the “folding stability dG” value came out at 1.18 kcal/mol. Under VTVDIKGMEYHFDNPEEAKKFAERMAKELGGELKVEEGTLKVE stands 1.52 kcal/mol.
